From patent US10398755B2, “Clusterin pharmaceuticals and treatment methods using the same” (UNIVERSITY OF SOUTHERN CALIFORNIA, priority 2009, dated 2019)

What was measured:
MMP-7 = molecular target: T1, MMP-7 (Mus musculus, UniProt Q10738); assay: MMP inhibition assay (FRET peptide substrate), APMA-activated MMP-7; assay type: biochemical; details: CLU 50 μg/ml (0.63 μM), RT 0.3 h
T1 construct: purchased R&D Systems
T1 sequence (Q10738 95-264): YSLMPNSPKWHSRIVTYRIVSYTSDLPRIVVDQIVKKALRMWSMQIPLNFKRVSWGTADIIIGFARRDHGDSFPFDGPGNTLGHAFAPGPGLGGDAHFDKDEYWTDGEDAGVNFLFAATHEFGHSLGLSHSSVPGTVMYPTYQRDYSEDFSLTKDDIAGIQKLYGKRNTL
Protocol: Recombinant MMP-9 catalytic domain (A) or APMA-activated MMP-7 (B) was incubated with PBS, CLU (50 μg/ml or 0.63 μM), SB3-CT (2 μM), or BSA (50 μg/ml), and MMP FRET substrate at RT for 0.3 h. RFU in PBS samples was considered 100%. Each reaction was performed in triplicate. Standard errors were depicted as a bar in each graph. MMPs were mixed with CLD in TSCB buffer, 50 mM Tris-HCI, pH, 7.5, 150 mM NaCl, 5 mM CaCl2, 0.002% Brij35 (or otherwise indicated concentration) 30 min prior to substrate addition, and incubated for 3 h at RT in the presence or absence of 0.02 mM p-aminophenylmercuric acetate (APMA). MMP activity was measured using a 5-FAM/QXL520 fluorescence resonance energy transfer (FRET) peptide as a substrate (EXlEm=490 nm/520 nm) (AnaSpec, Fremont, Calif.), according to the manufacturer's protocol. Relative fluorescence unit (RFU) was obtained by subtracting the values of APMA- or enzyme-omitted reactions from those of test samples, and then considering the fluorescence unit of a PBS (vehicle) sample as 100%. Enzyme reactions were performed in black 96-well plate, containing combinations of 10 ng, 5 ng, 5 ng, 10 ng, 2.5 μg, 2.5 μg of MMP-2, MMP-7, catalytic domain of MMP-9, MMP-9, CCLU, and/or BSA, respectively, in 50 μl reaction volume. As MMP substrates (0.4 μM), 520 MMP FRET substrate […] […] Fluorescence was monitored using a Victor^3TM V multilabel counter (PerkinElmer). […]

GST-MMP-9 = assay: GST pull-down assay with GST-tagged MMP-9; assay type: binding, mouse; details: presence or absence of bacterial lysate
Protocol: (A) GST-tagged MMP-9 was purified from the bacterial cells transformed by the expression vector, and immobilized to the anti-GST-beads to prepare MMP-9-GST beads. Purified CLU-HA was incubated with MMP-9-GST beads (M-GST) or GST-beads (GST) in the presence (+Lysate) or absence (−Lysate) of bacterial lysate, followed by washing the beads with binding buffer. Bound proteins were resolved on denaturing 8% SDS/PAGE gel for the immunoblotting with anti-HA antibody. CLU cDNA detected in the yeast two hybrid assay, which corresponds to the CLU coding sequence beginning at position 212 from the ATG site, was used to produce a protein band of approximately 40 KDa. (B) Gelatin (20 μg) and CLU (2 μg) were mixed and incubated in the presence or absence of active MMP-9, followed by denaturing 12% SDS/PAGE gel electrophoresis, which then was stained with Coomasie blue. Two subunits of CLU are designated as α and β.
The GST tagged MMP-9 constructs were generated by ligation of the pGB-MMP-9 EcoR I/Sal I inserts into the pGEX 4T vector (Amersham, Piscataway, N.J.). The pGEX 4T MMP-9 constructs were transformed into the E. Coli strain BL21(DE3) (Novagen, Gibbstown, N.J.) for expression. […]
To further confirm the interaction between MMP-9 and CLU that was detected by yeast two hybrid screening, we performed GST pull down assay using recombinant GST-tagged MMP-9 fusion protein. […]

GST-MMP-9, sequence (P41245 109-730 limits assumed): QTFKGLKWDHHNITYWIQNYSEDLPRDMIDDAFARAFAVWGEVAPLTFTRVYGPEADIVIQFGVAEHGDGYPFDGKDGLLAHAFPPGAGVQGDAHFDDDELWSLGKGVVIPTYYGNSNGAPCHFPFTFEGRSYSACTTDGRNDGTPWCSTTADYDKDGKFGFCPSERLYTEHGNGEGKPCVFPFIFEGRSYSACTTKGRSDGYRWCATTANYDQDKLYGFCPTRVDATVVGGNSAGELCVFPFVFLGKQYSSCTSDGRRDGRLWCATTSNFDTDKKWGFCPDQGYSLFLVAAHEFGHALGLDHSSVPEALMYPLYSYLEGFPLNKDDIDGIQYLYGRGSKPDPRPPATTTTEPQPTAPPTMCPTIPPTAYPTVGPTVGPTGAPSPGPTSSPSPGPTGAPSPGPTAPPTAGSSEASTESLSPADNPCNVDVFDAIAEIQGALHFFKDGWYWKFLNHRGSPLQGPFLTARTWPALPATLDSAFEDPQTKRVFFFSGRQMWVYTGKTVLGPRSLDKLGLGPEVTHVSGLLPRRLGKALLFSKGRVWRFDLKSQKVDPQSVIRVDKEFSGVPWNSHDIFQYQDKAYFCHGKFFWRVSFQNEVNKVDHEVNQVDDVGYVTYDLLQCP

B1: CLU: secreted disulfide-linked heterodimeric glycoprotein (70-80 KD); assays used recombinant mouse CLU with C-terminal (His)6 (protein, UniProt Q06890 22-448, looked up)
Clusterin: EQEVSDNELQELSTQGSRYINKEIQNAVQGVKHIKTLIEKTNAERKSLLNSLEEAKKKKEDALEDTRDSEMKLKAFPEVCNETMMALWEECKPCLKHTCMKFYARVCRSGSGLVGQQLEEFLNQSSPFYFWMNGDRIDSLLESDRQQSQVLDAMQDSFARASGIIDTLFQDRFFARELHDPHYFSPIGFPHKRPHFLYPKSRLVRSLMSPSHYGPPSFHNMFQPFFEMIHQAQQAMDVQLHSPAFQFPDVDFLREGEDDRTVCKEIRRNSTGCLKMKGQCEKCQEILSVDCSTNNPAQANLRQELNDSLQVAERLTEQYKELLQSFQSKMLNTSSLLEQLNDQFNWVSQLANLTQGEDKYYLRVSTVTTHSSDSEVPSRVTEVVVKLFDSDPITVVLPEEVSKDNPKFMDTVAEKALQEYRRKSRAE
modifications: C-terminal His6 tag
inhibition of APMA-activated MMP-7 (MMP-7): 17%
interaction of HA-tagged CLU with GST-MMP-9 (GST-MMP-9): still interacted even in the presence of the bacterial lysate
